According to patent publication US20110306546A1, “COMPOSITIONS FOR INCREASING HAIR GROWTH AND DECREASING HAIR LOSS” (ALVI ARMANI GENOMICS INC., priority 2010, published 2011):

B1: FGF10: FGF-10, also known as keratinocyte growth factor (KGF2) (protein, UniProt O15520 38-208, looked up)
Fibroblast growth factor 10: QALGQDMVSPEATNSSSSSFSSPSSAGRHVRSYNHLQGDVRWRKLFSFTKYFLKIEKNGKVSGTKKENCPYSILEITSVEIGVVAVKAINSNYYLAMNKKGKLYGSKEFNNDCKLKERIEENGYNTYASFNWQHNGRQMYVALNGKGAPRRGQKTRRKNTSAHFLPMVVHS
B2: Wnt: Wnt-3a growth factor (protein, UniProt P56704 19-352, looked up)
Protein Wnt-3a: SYPIWWSLAVGPQYSSLGSQPILCASIPGLVPKQLRFCRNYVEIMPSVAEGIKIGIQECQHQFRGRRWNCTTVHDSLAIFGPVLDKATRESAFVHAIASAGVAFAVTRSCAEGTAAICGCSSRHQGSPGKGWKWGGCSEDIEFGGMVSREFADARENRPDARSAMNRHNNEAGRQAIASHMHLKCKCHGLSGSCEVKTCWWSQPDFRAIGDFLKDKYDSASEMVVEKHRESRGWVETLRPRYTYFKVPTERDLVYYEASPNFCEPNPETGSFGTRDRTCNVSSHGIDGCDLLCCGRGHNARAERRREKCRCVFHWCCYVSCQECTRVYDVHTCK
B3: Nog: secreted polypeptide noggin, binds and inactivates TGF-beta superfamily signaling proteins (protein, UniProt Q13253 28-232, looked up)
Noggin: QHYLHIRPAPSDNLPLVDLIEHPDPIFDPKEKDLNETLLRSLLGGHYDPGFMATSPPEDRPGGGGGAAGGAEDLAELDQLLRQRPSGAMPSEIKGLEFSEGLAQGKKQRLSKKLRRKLQMWLWSQTFCPVLYAWNDLGSRFWPRYVKVGSCFSKRSCSVPEGMVCKPSKSVHLTVLRWRCQRRGGQRCGWIPIQYPIISECKCSC
B4: Eph: member of the Ephrin family, binds to the Eph receptor (protein, UniProt P52797 23-214, looked up)
Ephrin-A3: QGPGGALGNRHAVYWNSSNQHLRREGYTVQVNVNDYLDIYCPHYNSSGVGPGAGPGPGGGAEQYVLYMVSRNGYRTCNASQGFKRWECNRPHAPHSPIKFSEKFQRYSAFSLGYEFHAGHEYYYISTPTHNLHWKCLRMKVFVCCASTSHSGEKPVPTLPQFTMGPNVKINVLEDFEGENPQVPKLEKSISG
B5: BMP-6: bone morphogenesis protein-6 (protein, UniProt P22004 375-513, looked up)
Bone morphogenetic protein 6: SASSRRRQQSRNRSTQSQDVARVSSASDYNSSELKTACRKHELYVSFQDLGWQDWIIAPKGYAANYCDGECSFPLNAHMNATNHAIVQTLVHLMNPEYVPKPCCAPTKLNAISVLYFDDNSNVILKKYRNMVVRACGCH

Test system: Hair follicles (HF)
Experiment: Hair follicle (HF) explant growth assay
Format: cell-based, human
Conditions: HF elongation after 7-8 days; 20 ng/ml of each growth factor, hypoxanthine 2 μM; mean of 6-8 independent experiments
Description: Hair follicles (HF) were extracted from the occipital area of 6-8 individuals with hair loss. The HFs were processed to equivalent lengths and cultured in William's E medium supplemented with 100 units/ml penicillin G, 100 μg/ml streptomycin, 0.25 μg/ml amphotericin B, […], 1 ng/ml hydrocortisone; basic medium or control medium or basic medium supplemented with 20 ng/ml of each of IGF-1, FGF-2, PDGF, Wnt-3A (Wnt), Noggin (Nog), Ephrin A3 (Eph), SHH and BMP-6 as well as hypoxanthine (Hyx) at 2 μM final concentration. The “GF10 cocktail” or “GF10” includes all nine growth factors and hypoxanthine while the “GF7 cocktail” or “GF7” contains six growth factors (all growth factors of GF10 except for FGF-10, Eph and SHH) and hypoxanthine. Growth promotion was measured as elongation of the HF at the end of 7-8 days. All growth factors and hypoxanthine promoted growth individually and in combination (FIG. 1 and Table 1).

In order of rising “Increase in growth (% control) Mean” value:
1. B5  46.44 % control
2. B1  48.55 % control
3. B3  51.45 % control
4. B4  57.61 % control
5. B2  104.817 % control
